Measurements: the supplement of paper PMC10724198
± gives the standard deviation of the averaged measurements.

Experiments:
Saccharomyces cerevisiae [1] = experiment: protein stability index of tFT-peptide fusion in deletion strain of DAS1 (PSI (0-1 scale)); higher = more stable (slower turnover)
Method: (§1)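 MPS profiling in S. cerevisiae of two library types built from selected 12-aa C-degron peptides (IN1, IN2, LN1, LN3, VN2, R1-R5, W1-W3, Atg1 and Rpa12 C-termini): saturation mutagenesis libraries and C-terminal +1 capping libraries (13 aa). Each peptide is fused to the C-terminus of a sfGFP-mCherry timer, after a GGGS linker. Cells are FACS-sorted into 8 mCherry/sfGFP bins and sequenced. PSI runs from 0 (unstable) to 1 (stable), measured once in wild type and in the das1Δ or doa10Δ background.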

Saccharomyces cerevisiae [2] = experiment: protein stability index of tFT-peptide fusion in wild type (PSI (0-1 scale)); higher = more stable (slower turnover); details: genetic background: wild type
Method: as §1

Saccharomyces cerevisiae [3] = experiment: protein stability index of tFT-peptide fusion (C-terminal peptide) (PSI (0-1 scale)); higher = more stable (slower turnover); details: temperature: 30 C
Method: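 MPS profiling in S. cerevisiae of the yeast C-terminome library: the last 12 aa of each annotated ORF are fused to the C-terminus of a sfGFP-mCherry timer, after a GGGS linker. Cells are FACS-sorted into 8 mCherry/sfGFP bins and deep-sequenced. PSI runs from 0 (unstable) to 1 (stable); wild type and das1Δ backgrounds, two technical replicates each.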

[4] = genetic background: das1 deletion
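Wherever protein stability index of tFT-peptide fusion in deletion strain of DAS1 is given: PSI is a weighted mean of each variant's read distribution over the sorted stability bins, computed only for variants having over 10 reads in total.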
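Wherever protein stability index of tFT-peptide fusion in wild type is given: PSI derived as read-weighted mean over the 8 sorting bins, only variants exceeding 10 total reads kept, mCherry placed adjacent to the peptide and sfGFP distal.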

| Sequence | protein stability index (Saccharomyces cerevisiae [1]) | protein stability index (Saccharomyces cerevisiae [2]) | protein stability index (Saccharomyces cerevisiae [3]; [4]) | protein stability index (Saccharomyces cerevisiae [3]; genetic background: wild type) |
| --- | --- | --- | --- | --- |
| ARHRVGLWRGAS | 0.689 | 0.603 |  |  |
| ARWCVGLWRGAS | 0.7 | 0.357 |  |  |
| ARWFVGLWRGAS | 0.699 | 0.345 |  |  |
| ARWKVGLWRGAS | 0.673 | 0.32 |  |  |
| ARWRKGLWRGAS | 0.697 | 0.657 |  |  |
| ARWRRGLWRGAS | 0.692 | 0.55 |  |  |
| ARWRTGLWRGAS | 0.679 | 0.474 |  |  |
| ARWRVDLWRGAS | 0.728 | 0.214 |  |  |
| ARWRVGLFRGAS | 0.665 | 0.655 |  |  |
| ARWRVGLMRGAS | 0.677 | 0.596 |  |  |
| ARWRVGLRRGAS | 0.683 | 0.672 |  |  |
| ARWRVGLWRCAS | 0.674 | 0.114 |  |  |
| ARWRVGLWRGAF | 0.682 | 0.603 |  |  |
| ARWRVGLWRGAM | 0.702 | 0.531 |  |  |
| ARWRVGLWRGAW | 0.686 | 0.68 |  |  |
| ARWRVGLWRGLS | 0.661 | 0.119 |  |  |
| ARWRVGLWRGRS | 0.679 | 0.66 |  |  |
| ARWRVGLWRHAS | 0.688 | 0.0927 |  |  |
| ARWRVGLWRNAS | 0.693 | 0.11 |  |  |
| ARWRVGLWRYAS | 0.686 | 0.0836 |  |  |
| ARWRVMLWRGAS | 0.705 | 0.305 |  |  |
| ARWRVYLWRGAS | 0.618 | 0.378 |  |  |
| AVWRVGLWRGAS | 0.678 | 0.409 |  |  |
| CDKRNHLIKLLN | 0.589 | 0.153 |  |  |
| CPSCGYKFRTNN | 0.754 | 0.361 |  |  |
| CTECGYKFRTNN | 0.678 | 0.357 |  |  |

| Sequence | protein stability index (Saccharomyces cerevisiae [1]) | protein stability index (Saccharomyces cerevisiae [2]) | protein stability index (Saccharomyces cerevisiae [3]; [4]) | protein stability index (Saccharomyces cerevisiae [3]; genetic background: wild type) |
| --- | --- | --- | --- | --- |
| CTPCGYKFRTNN | 0.686 | 0.248 |  |  |
| CTSCFYKFRTNN | 0.677 | 0.173 |  |  |
| CTSCGDKFRTNN | 0.696 | 0.48 |  |  |
| CTSCGKKFRTNN | 0.688 | 0.5 |  |  |
| CTSCGYKERTNN | 0.699 | 0.632 |  |  |
| CTSCGYKFDTNN | 0.705 | 0.667 |  |  |
| CTSCGYKFETNN | 0.707 | 0.656 |  |  |
| CTSCGYKFKTNN | 0.725 | 0.642 |  |  |
| CTSCGYKFMTNN | 0.676 | 0.477 |  |  |
| CTSCGYKFRENN | 0.693 | 0.691 |  |  |
| CTSCGYKFRMNN | 0.686 | 0.412 |  |  |
| CTSCGYKFRTNG | 0.685 | 0.399 |  |  |
| CTSCGYKFRTNNS | 0.7 | 0.683 |  |  |
| CTSCGYKFRTNNW | 0.716 | 0.705 |  |  |
| CTSCGYKFRTNQ | 0.691 | 0.498 |  |  |
| CTSCGYKFRTNW | 0.705 | 0.695 |  |  |
| CTSCGYKMRTNN | 0.669 | 0.227 |  |  |
| CTSCGYKSRTNN | 0.703 | 0.673 |  |  |
| CTSCGYNFRTNN | 0.704 | 0.642 |  |  |
| CTSCSYKFRTNN | 0.686 | 0.267 |  |  |
| CTSFGYKFRTNN | 0.678 | 0.127 |  |  |
| CTSKGYKFRTNN | 0.667 | 0.269 |  |  |
| CTSMGYKFRTNN | 0.689 | 0.148 |  |  |
| WKLRAKYGIRKD [MGR2 C-terminal 12 aa] |  |  | 0.6905 ± 0.0028 | 0.684 ± 0.02 |
| WKLYQDYLSGKV [YER134C C-terminal 12 aa] |  |  | 0.695 ± 0.014 | 0.719 ± 0.08 |
| WLDKHTTTEAKP [YJU3 C-terminal 12 aa] |  |  | 0.7087 ± 0.0036 | 0.705 ± 0.0089 |

| Sequence | protein stability index (Saccharomyces cerevisiae [1]) | protein stability index (Saccharomyces cerevisiae [2]) | protein stability index (Saccharomyces cerevisiae [3]; [4]) | protein stability index (Saccharomyces cerevisiae [3]; genetic background: wild type) |
| --- | --- | --- | --- | --- |
| WQDFVPDEHISQ [VPS501 C-terminal 12 aa] |  |  | 0.736 ± 0.0053 | 0.792 ± 0.028 |
| WSTFYYLCRKRE [CRG1 C-terminal 12 aa] |  |  | 0.693 ± 0.014 | 0.701 ± 0.077 |
| WYLQSVNLRDGV [HOL1 C-terminal 12 aa] |  |  | 0.6852 ± 0.005 | 0.688 ± 0.035 |
| WYSRKNINSRFE [MTR10 C-terminal 12 aa] |  |  | 0.714 ± 0.059 | 0.712 ± 0.046 |
| YAKFGDNINLER [GIM3 C-terminal 12 aa] |  |  | 0.70175 ± 0.00021 | 0.698 ± 0.031 |
| YAWTRGLTNPIC [FEX1 C-terminal 12 aa] |  |  | 0.69727 ± 0.00064 | 0.69 ± 0.0087 |
| YELDGPYMSKRI [ELP3 C-terminal 12 aa] |  |  | 0.6788 ± 0.0018 | 0.704 ± 0.062 |
| YGANSQQTFEHT [YFR034W-A C-terminal 12 aa] |  |  | 0.706 ± 0.011 | 0.728 ± 0.026 |
| YIARNQKKGMSI [ECT1 C-terminal 12 aa] |  |  | 0.685 ± 0.011 | 0.67 ± 0.015 |
| YIKEAQSACNDV [COS12 C-terminal 12 aa] |  |  | 0.692 ± 0.018 | 0.664 ± 0.03 |
| YKNLRKTSSSHL [NPY1 C-terminal 12 aa] |  |  | 0.843 ± 0.028 | 0.84 ± 0.031 |
| YKTKYIWERLGK [SPC24 C-terminal 12 aa] |  |  | 0.69 ± 0.012 | 0.694 ± 0.029 |
| YKTQTGNFQVRL [APM3 C-terminal 12 aa] |  |  | 0.706 ± 0.0095 | 0.722 ± 0.0093 |
| YLERRVRTLKKD [MRPL32 C-terminal 12 aa] |  |  | 0.713 ± 0.032 | 0.68 ± 0.013 |
| YLVHNNADEKSN [CUZ1 C-terminal 12 aa] |  |  | 0.704 ± 0.034 | 0.695 ± 0.05 |
| YNDHRLPKRAKK [HSF1 C-terminal 12 aa] |  |  | 0.6948 ± 0.0036 | 0.7354 ± 0.0051 |
| YNKLESNLQIFM [ABZ1 C-terminal 12 aa] |  |  | 0.697 ± 0.017 | 0.744 ± 0.0097 |
| YPFTISYISPPY [YPR169W-A C-terminal 12 aa] |  |  | 0.71 ± 0.067 | 0.702 ± 0.025 |
| YPQQLLGYTDNG [YKL115C C-terminal 12 aa] |  |  | 0.628 ± 0.013 | 0.597 ± 0.0073 |
| YSFNKLTMTILY [YER137W-A C-terminal 12 aa] |  |  | 0.6999 ± 0.0014 | 0.633 ± 0.026 |
| YSIEVVPHGLIA [GLO1 C-terminal 12 aa] |  |  | 0.607 ± 0.0097 | 0.5946 ± 0.0015 |
| YTSKSFSPASSE [YMR181C C-terminal 12 aa] |  |  | 0.704 ± 0.031 | 0.668 ± 0.022 |
| YVFIVNHAAEQT [NUP116 C-terminal 12 aa] |  |  | 0.677 ± 0.024 | 0.659 ± 0.009 |
| YVKQQHGQSQND [EAF6 C-terminal 12 aa] |  |  | 0.695 ± 0.021 | 0.694 ± 0.022 |
